Test results reported in patent publication US20140087995A1 (published 2014).
Numbered stars: 1 amine (or outer) side, 2 acyl side, 3 side chain; on linkers, the order of the positions; unused ones are H or OH. Bridge positions count the residues as written; N and C are the ends. Side chains are listed from the residue outwards. Ends that are not written are not given here. * marks the point of attachment. C20 diacid = O=C(O)CCCCCCCCCCCCCCCCCCC(=O)*; γGlu = O=C(O)[C@H](CCC(=O)[*:2])N[*:1]; AEEA = NCCOCCOCC(=O)O

Target: T1, human amylin 3(a) receptor (human calcitonin receptor co-expressed with RAMP-3) (human, UniProt P30988 25-474; O60896 24-148, limits assumed)
T1 sequence (looked up) 1: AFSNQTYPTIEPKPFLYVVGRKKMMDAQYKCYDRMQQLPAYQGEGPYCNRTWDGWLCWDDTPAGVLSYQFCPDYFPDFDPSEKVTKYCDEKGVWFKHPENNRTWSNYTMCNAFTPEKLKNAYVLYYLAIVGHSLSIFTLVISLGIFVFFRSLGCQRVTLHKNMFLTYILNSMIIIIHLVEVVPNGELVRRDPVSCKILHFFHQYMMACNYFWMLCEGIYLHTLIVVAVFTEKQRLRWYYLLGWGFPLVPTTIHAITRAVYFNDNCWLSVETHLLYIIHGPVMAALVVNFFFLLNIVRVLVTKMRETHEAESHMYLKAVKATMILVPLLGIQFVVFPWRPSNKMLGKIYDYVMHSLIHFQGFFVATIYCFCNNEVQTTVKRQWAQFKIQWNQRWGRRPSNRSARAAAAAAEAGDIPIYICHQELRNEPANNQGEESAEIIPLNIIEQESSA
T1 sequence (looked up) 2: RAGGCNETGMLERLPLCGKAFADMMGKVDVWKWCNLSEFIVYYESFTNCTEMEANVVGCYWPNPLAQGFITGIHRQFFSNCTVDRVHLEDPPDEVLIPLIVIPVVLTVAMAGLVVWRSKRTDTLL
Experiment: cell-based or functional assay

Binder	Ratio hCT/hAmylin funct. (hCTR EC50 over hAmylin-R EC50)	hAmylin-R funct. EC50 (pM)
K([γGlu-C20 diacid])CNTATCATQRLANFLRHSSPNFGAIPSSTNVGSNTY-NH2 (disulfide 2-7; N-terminus assumed; SMILES CC[C@H](C)[C@H](NC(=O)[C@H](C)NC(=O)CNC(=O)[C@H](Cc1ccccc1)NC(=O)[C@H](CC(N)=O)NC(=O)[C@@H]1CCCN1C(=O)[C@H](CO)NC(=O)[C@H](CO)NC(=O)[C@H](Cc1c[nH]cn1)NC(=O)[C@H](CCCNC(=N)N)NC(=O)[C@H](CC(C)C)NC(=O)[C@H](Cc1ccccc1)NC(=O)[C@H](CC(N)=O)NC(=O)[C@H](C)NC(=O)[C@H](CC(C)C)NC(=O)[C@H](CCCNC(=N)N)NC(=O)[C@H](CCC(N)=O)NC(=O)[C@@H](NC(=O)[C@H](C)NC(=O)[C@@H]1CSSC[C@H](NC(=O)[C@@H](N)CCCCNC(=O)CC[C@H](NC(=O)CCCCCCCCCCCCCCCCCCC(=O)O)C(=O)O)C(=O)N[C@@H](CC(N)=O)C(=O)N[C@@H]([C@@H](C)O)C(=O)N[C@@H](C)C(=O)N[C@@H]([C@@H](C)O)C(=O)N1)[C@@H](C)O)C(=O)N1CCC[C@H]1C(=O)N[C@@H](CO)C(=O)N[C@@H](CO)C(=O)N[C@H](C(=O)N[C@@H](CC(N)=O)C(=O)N[C@H](C(=O)NCC(=O)N[C@@H](CO)C(=O)N[C@@H](CC(N)=O)C(=O)N[C@H](C(=O)N[C@@H](Cc1ccc(O)cc1)C(N)=O)[C@@H](C)O)C(C)C)[C@@H](C)O, also called compound 48) [N^ε1-[(4S)-4-carboxy-4-(19-carboxynonadecanoylamino)butanoyl]-[Arg17,Pro21,Pro27]-h-amylin]	17	116
K([AEEA-γGlu-C20 diacid])RCNTATCATQRLANFLRHSSPNFGAIPSSTNVGSHTY-NH2 (disulfide 3-8; N-terminus assumed; SMILES CC[C@H](C)[C@H](NC(=O)[C@H](C)NC(=O)CNC(=O)[C@H](Cc1ccccc1)NC(=O)[C@H](CC(N)=O)NC(=O)[C@@H]1CCCN1C(=O)[C@H](CO)NC(=O)[C@H](CO)NC(=O)[C@H](Cc1c[nH]cn1)NC(=O)[C@H](CCCNC(=N)N)NC(=O)[C@H](CC(C)C)NC(=O)[C@H](Cc1ccccc1)NC(=O)[C@H](CC(N)=O)NC(=O)[C@H](C)NC(=O)[C@H](CC(C)C)NC(=O)[C@H](CCCNC(=N)N)NC(=O)[C@H](CCC(N)=O)NC(=O)[C@@H](NC(=O)[C@H](C)NC(=O)[C@@H]1CSSC[C@H](NC(=O)[C@H](CCCNC(=N)N)NC(=O)[C@@H](N)CCCCNC(=O)COCCOCCNC(=O)CC[C@H](NC(=O)CCCCCCCCCCCCCCCCCCC(=O)O)C(=O)O)C(=O)N[C@@H](CC(N)=O)C(=O)N[C@@H]([C@@H](C)O)C(=O)N[C@@H](C)C(=O)N[C@@H]([C@@H](C)O)C(=O)N1)[C@@H](C)O)C(=O)N1CCC[C@H]1C(=O)N[C@@H](CO)C(=O)N[C@@H](CO)C(=O)N[C@H](C(=O)N[C@@H](CC(N)=O)C(=O)N[C@H](C(=O)NCC(=O)N[C@@H](CO)C(=O)N[C@@H](Cc1c[nH]cn1)C(=O)N[C@H](C(=O)N[C@@H](Cc1ccc(O)cc1)C(N)=O)[C@@H](C)O)C(C)C)[C@@H](C)O, 38 residues; also called compound 45)	17	594
